Data published in patent US20040138156A1, “Therapeutic regulation of deoxyribonuclease-1-like-3 activity” (priority 2002, published 2004).
“Also recorded” adds a separate entry of the source.

How the values were obtained:
bone marrow macrophages = experiment: Induction of D1L3 in cultured bone marrow macrophages (anti-D1L3 immunoblot, RDA, zymogram); format: cell-based, C57BL mice; details: 100 U/ml for the interferons
Procedure: FIG. 22. Normal and induced expression of D1L3 in murine macrophages. […] In anti-D1L3 blots of cell lysates, the protein is seen both as a ^˜34 kDa uncleaved molecule and a ^˜28 kDa cleaved molecule. […] Cells were plated on serum-coated tissue culture dishes and incubated overnight, the next morning, non-adherent cells (N) were rinsed vigorously with PBS 1×, and both adeherent (A) and non-adherent cells (N) from C57BL, NZB/W, BXSB, and MRL were lysed and immunoblotted with anti-D1L3. While the ^˜34 kDa size band consistent with uncleaved D1L3 is present in both adherent and non-adherent, the cleaved form (^˜28 kDa) is present almost exclusively in the adherent population of presumed macrophages. Also noticable are the higher levels of expression of D1L3 in the 3 latter lupus strains. Panel B: Untreated bone marrow macrophages from NZB/WF1 mice have a much higher baseline expression expression of D1L3 than C57BL macrophages.
Induction is present in macrophages from both strain though the absolute level of induction appears greater in C57BL than in the SLE-prone NZB/W F1 strain. NZB/W protein loads in Ifn-γ-negative lane is slightly underloaded relative to actin. Panel C: Bone marrow macrophages isolated from bone marrow (via adherence) from MRL and C57BL mice, and cultured for 2 days in vitro, were induced by Ifn-γ. […] No induction of D1L3, RDA-DNASE, or zymographic DNASE activity is evident upon tratement with 100 U/ml of Ifn-alpha. […] Panel D: Bone marrow macrophages from C57BL and MRL mice cultured for 7 days in the presence of GM-CSF were induced with Ifn-γ, again showing the higher baseline levels of 28 kDa enzyme in the lupus prone strain, and in C57BL showing induction of levels aftern Ifn-γ. […]
Assays of Murine Cells. […] Splenocytes were counted using a hemochromocytometer, and plated at 2 million cells/ml on plastic 6-well Falcon tissue culture dishes (Becton Dickinson) in RPMI with 10% FCS. […]

liposomal-bound plasmid = experiment: Cell-free nuclease activity assay on free or FuGene-bound plasmid; format: biochemical; details: FuGene-bound plasmid, 37° C., 1 hour
Procedure: FIG. 16. […] Representative experiment (n=3) of exposure of […] free (−) or liposomal-bound (+FuGene) plasmid to control media with 10% fetal calf serum (lanes 1-2), D1 (lanes 3-4), D1L3 (lanes 5-6), D3DCT (lanes 7-8), and N196K-D3 (lanes 9-10).
Cell-Free Nuclease Activity Assay. Free plasmid DNA or plasmid complexed with lipofection reagent was incubated with conditioned at 37° C. for 1 hour. The incubation was terminated with […] EDTA, and DNA extracted using Promega Wizard DNA Purification System, eluted in […] water, and electrophoresed on a 1% agarose gel.

Ad5.CMV-GFP = experiment: Adenoviral gene transduction of HeLa cells in conditioned media, GFP immunoblot; format: cell-based, adenovirus serotype 5; details: lysed at 72 hours
Procedure: FIG. 30. D3-media confers an in vitro barrier to adenoviral gene transduction (BT). This figure provides anti-GFP immunoblots at 1:5000 (Clontech) of Ad.V.GFP infected (MO 100:1) of 100,000 HeLa cells. Infection of HeLa cells with Ad5.CMV-GFP (a 1st generation (DE1/DE3) adenovirus serotype 5 expressing GFP under the control of CMV-IE promoter (Qbiogene)) was performed in the presence of D1, D3, D1+D3CT, or control conditioned media. Infected cells were lysed at 72 hours and tested for GFP expression (n=3 expts). […] Thus DNASE1L3 or DNASE enzymes linked to the D3CT diminish adenoviral gene transfer. […] Actin levels were generally equivalent in infected cells.

HeLa cells = experiment: BT assay: liposomal N1-eGFP transfection of HeLa cells in DNASE-conditioned media, GFP immunoblot; format: cell-based; details: for GFP fluorescence by fluorescent microscopy: 24 hours; for GFP transfection in ten-fold diluted conditioned media: ten-fold (five and ten fold) dilution of conditioned media; for BT activity / GFP expression or transfection efficiency in cells exposed to undiluted conditioned media: FuGENE-6
Procedure: In the main assay, an eukaryotic marker such as green fluorescent protein (GFP) expression plasmid complexed with a lipid reagent is transfected into HeLa cells incubated in control media, D1L3-conditioned media, or D1-conditioned media (FIG. 4). The assay is not limited to the use of GFP as a marker, but could use any of many expressed biomarkers encoded by nucleotides that can be assayed either immunochemistry, fluorescent detection, or enzymatic detectection, and these include but are not circumscribed to luciferase, chloramphenicol acetyl-transferase, antibiotic or chemical resistance genes, Beta-galactosidase, FLAG-, myc-hemaglutinnin-, or other epitope tagged molecules, as well as other markers of gene or nucleotide transduction. The endpoint of the assay is the detection of a synthesized protein, but could easily have been the detection of a transcribed gene product, since the assay ultimately measures the ability of D1L3 added the media/milieu overlaying the cells to block the ultimate association of an expressible plasmid with the transcriptional machinery.
(§1) Transfection Reagents and Resistance Assays. Lipofection of respective pcDNA3.1-D1 or -D3 ([…] purified with Promega Wizard Plus DNA system) was performed independently into 1-2 million HeLa cells, which produce a low background of secreted nuclease activity, when grown in DMEM with 10% FCS (LifeTech) in 6 well culture plates (Becton-Dickinson). […] Media of the transfected cells were conditioned for 36-48 hours and served as source of the respective enzymes. Nuclease activity in conditioned supernatant was measured by RDAs, zymograms and by testing activity against supercoiled pBluescript (Stratagene).
To test for the ability of the nucleases to block transfection, the media in individual wells of naive HeLa cells were replaced with conditioned media, and cells transfected with […] of N1-eGFP plasmid (Clontech) using various transfection reagents (FIG. 11) and their respective protocols. GFP expression by immunoblot directly correlated with transfection efficiency in present experiments. Thus, transfection efficiency was compared by densitometric analysis of GFP immunoblots.
GFP expression was also examined by fluorescent microscopy using a FITC filter. For microscopy, cells were fixed for 5 minutes in 4% paraformaldehyde dissolved into 1% PBS.
Antibody Reagents and Immunoblotting. After 24-36 hours, cells transfected with N1-eGFP were lysed in SDS-buffer and immunoblotted for expression with anti-GFP at 1:5000 dilution (Clontech). To confirm nearly equal protein loading per lane, anti-β-actin monoclonal antibody at 1:7,000 dilution (Sigma) were prepared. For immunoblots, […] protein was eletrophoretically separated by 12% SDS-PAGE gel, followed by electrotransfer to Immobilon-P membranes (Millipore) for expression studies. Immunoblotting was performed using ECL detection (Amersham).
Transfection efficiency was compared, wherever possible, by pixel densitometry of the scanned images using Scion Image 4.02 software.

free DNA = experiment: Radial diffusion assay (RDA) of nuclease activity against free DNA in conditioned media; format: biochemical; details: for mean RDA activity of conditioned media: 24 hours, 37 degrees
Procedure: as §1
Nuclease Assays. Nuclease activity against “naked” or free DNA in CM was quantified by densitometry of RDAs. For assays of media by murine cells, RDAs were performed using conditioned media, after 36 hour incubation of equal numbers of target cell population. Each conditioned media was sampled in triplicate. RDAs for all four mice were performed on a single dish. For RDAs, 2-5 ul of conditioned supernatant was dotted on 100 mm dishes containing 2% agarose, 250 ug/ml DNA, 0.001% EtBr, 0.5% filtered milk, 10 mM Ca^+2/MgCl2; and 12.5 ug/ml kanamycin. Multiple observations were generated for every sample obtained. After 24 hours of 37° incubation, plates are photographed under UV transillumination; and scanned photos were analyzed with NIH image. For RDAs, the activity was quantified as the product of mean density and area (traced on image) of zones of clearing. For observations of serum/urine, 2-5 ul of serum were dotted on agarose plates.
Zymograms are in-gel renaturation assays performed by SDS-PAGE through a gel impregnated with 200 µg/ml DNA and ethidium bromide, eluting away SDS with repeated washes in 25 mM Tris-HCl pH 7.5, then incubating for 12-16 hours at 37° C. in 25 mM Tris-HCl pH 7.5 with 10 mM Ca^+2/Mg^+2 buffer. Activity is measured as dark “bands” of DNA digestion (Rosenthal et al., (1977) Anal. Biochem. 80, 76-90) and quantified using scanned images using NIH Image. Photographed RDA results were scanned 600 dpi Tiff images, and activity was measured as pixel area times density of traced zones of clearing (n=3 for each zone). Student's T-test was used to compare paired results. Nuclease activity ratios were obtained by comparing intra-plate results.

[1] = media conditioned by transfected HeLa cells

| Molecule | induction of D1L3 in macrophages (bone marrow macrophages) | state of liposome-bound plasmid after exposure to conditioned media (liposomal-bound plasmid) | GFP expression after Ad5.CMV-GFP infection / barrier to infection (Ad5.CMV-GFP) | GFP fluorescence by fluorescent microscopy (HeLa cells) | BT activity / GFP expression or transfection efficiency in cells exposed to undiluted conditioned media (HeLa cells; anti-GFP immunoblot) | mean RDA activity of conditioned media (free DNA; [1]) | also measured |
| --- | --- | --- | --- | --- | --- | --- | --- |
| CCCCCCCCCCCCCC(=O)O[C@@H]1[C@@H](C)[C@@]2(O)[C@@H](C=C(CO)C[C@]3(O)C(=O)C(C)=C[C@@H]23)[C@@H]2C(C)(C)[C@]12OC(C)=O [PMA, phorbol myristate acetate] | inducible | – | – | – | – | – | – |
| lipopolysaccaride [LPS] | inducible | – | – | – | – | – | – |
| D1L3: Deoxyribonuclease 1-like 3; murine wild-type (C57BL, 89T) enzyme supplied as media conditioned by transfected HeLa cells (protein) LRLCSFNVRSFGASKKENHEAMDIIVKIIKRCDLILLMEIKDSSNNICPMLMEKLNGNSRRSTTYNYVISSRLGRNTYKEQYAFVYKEKLVSVKTKYHYHDYQDGDTDVFSREPFVVWFHSPFTAVKDFVIVPLHTTPETSVKEIDELVDVYTDVRSQWKTENFIFMGDFNAGCSYVPKKAWQNIRLRTDPKFVWLIGDQEDTTVKKSTSCAYDRIVLCGQEIVNSVVPRSSGVFDFQKAYDLSEEEALDVSDHFPVEFKLQSSRAFTNNRKSVSLKKRKKGNRS | – | mostly supercoiled plasmid is protected | afford a barrier to infection | absence of GFP fluorescence | No GFP expression; also recorded: effectively blocks transfection efficiency | 12.0 Units | state of liposome-bound plasmid after exposure to conditioned media (liposomal-bound plasmid; listed as D1L3-CM): does not completely digest liposomal-bound DNA; GFP expression after Ad5.CMV-GFP infection / barrier to infection (Ad5.CMV-GFP; listed as D3): prevents GFP expression; BT effect of diluted conditioned media (HeLa cells; diluted 100 fold with control media or 10-fold with N196K conditioned media): complete BT effect; GFP transduction after pre-incubation in conditioned media (HeLa cells; naive cells incubated six hours, rinsed twice with PBS, transfected in control media): blocked; GFP transfection in ten-fold diluted conditioned media (HeLa cells): No GFP expression is clearly detectable; GFP transfection in ten-fold diluted conditioned media (HeLa cells; listed as 89T): nearly completely blocks GFP transduction; also recorded: no GFP transfection efficiency; GFP transfection in ten-fold diluted conditioned media (HeLa cells; listed as D3): No GFP expression is clearly detectable; BT activity / GFP expression or transfection efficiency in cells exposed to undiluted conditioned media (HeLa cells; anti-GFP immunoblot, listed as 89T): saturated BT activity; BT activity / GFP expression or transfection efficiency in cells exposed to undiluted conditioned media (HeLa cells; anti-GFP immunoblot, listed as D3): prevents GFP expression; also recorded: abolished |
| D1: Murine deoxyribonuclease 1, glycosylated, supplied as media conditioned by transfected HeLa cells (protein, UniProt P49183 23-284, looked up) Deoxyribonuclease-1: LRIAAFNIRTFGETKMSNATLSVYFVKILSRYDIAVIQEVRDSHLVAVGKLLDELNRDKPDTYRYVVSEPLGRKSYKEQYLFVYRPDQVSILDSYQYDDGCEPCGNDTFSREPAIVKFFSPYTEVQEFAIVPLHAAPTEAVSEIDALYDVYLDVWQKWGLEDIMFMGDFNAGCSYVTSSQWSSIRLRTSPIFQWLIPDSADTTVTSTHCAYDRIVVAGALLQAAVVPNSAVPFDFQAEYGLSNQLAEAISDHYPVEVTLRKI | – | all remaining plasmid migrated in a nicked or linearized conformation | increased expression of GFP | abundant GFP | did not differ significantly from controls; also recorded: no significant decrease; also recorded: no effect | 28.2 Units | mean ratio of GFP expression in exposed cells versus control (HeLa cells; n=20 assays, anti-GFP immunoblot): 0.8 ± 0.2; RDA activity relative to D1L3 conditioned media (free DNA; densitometry of RDAs, n=24 assays): ~2.7 fold; RDA nuclease activity of conditioned media (in words) (free DNA; [1]): greater RDA activity than D3 |
